Sequences and labels used below:
B5: mCHERRY-RIPK1(497-583) (domain or fragment, human, UniProt Q13546 497-583, looked up)
chain: MPSLHNIPVPETNYLGNTPTMPFSSLPPTDESIKYTIYNSTGIQIGAYNYMEIGGTSSSLLDSTNTNFKEEPAAKYQAIFDNTTSLT
B8: YPet-RIPK3(387-518) (domain or fragment, human, UniProt Q9Y572 387-518, looked up)
chain: TSSDSMAQPPQTPETSTFRNQMPSPTSTGTPSPGPRGNQGAERQGMNWSCRTPEPNPVTGRPLVNIYNCSGVQVGDNNYLTMQQTTALPTWGLAPSGKGRGLQHPPPVGSQEGPKDPEAWSRPQGWYNHSGK
B13: ECFP-M45(1-90) (domain or fragment, murine cytomegalovirus, UniProt Q06A28 1-90, looked up)
chain: MDRQPKVYSDPDNGFFFLDVPMPDDGQGGQQTATTAAGGAFGVGGGHSVPYVRIMNGVSGIQIGNHNAMSIASCWSPSYTDRRRRSYPKT
B14: His-Ub-M45(1-90) (domain or fragment, murine cytomegalovirus, UniProt Q06A28 1-90, looked up)
chain: MDRQPKVYSDPDNGFFFLDVPMPDDGQGGQQTATTAAGGAFGVGGGHSVPYVRIMNGVSGIQIGNHNAMSIASCWSPSYTDRRRRSYPKT
B15: mCHERRY-M45(1-90WT) (domain or fragment, murine cytomegalovirus, UniProt Q06A28 1-90, looked up)
chain: MDRQPKVYSDPDNGFFFLDVPMPDDGQGGQQTATTAAGGAFGVGGGHSVPYVRIMNGVSGIQIGNHNAMSIASCWSPSYTDRRRRSYPKT

Data set [1] concerns the molecule itself. As to the kind of experiment: sedimentation of insoluble material + transmission electron microscopy.
Data set [2] deals with the molecule itself. As to the kind of experiment: negative-stain transmission electron microscopy.
Data set [3] deals with the molecule itself. As to the kind of experiment: SEC. For orientation: In gel filtration, larger molecules generally elute earlier.
Data set [4] addresses B5. As to the kind of experiment: single-molecule two-colour fluorescence coincidence spectroscopy.
Data set [5] addresses B15. The description is as above.
Data set [6] deals with the molecule itself. In words: thioflavin T fluorescence kinetics.
The target of data set [7] is B8. In words: single-molecule two-colour fluorescence coincidence spectroscopy.
For data set [8], the target named is B13. As to the kind of experiment: confocal fluorescence microscopy of fibrils.
The target in data set [9] is T1, His-Ub-RIPK1(497-583) (human, UniProt Q13546 497-583).
T1 sequence (looked up): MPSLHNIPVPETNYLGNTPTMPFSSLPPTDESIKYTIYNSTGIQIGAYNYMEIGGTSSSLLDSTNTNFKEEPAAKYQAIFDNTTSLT
In words: fluorescence polarisation. (Polarisation of emitted light reports the rotation of a fluorescent probe.)

In data set [10] the target is B14. As to the kind of experiment: fluorescence polarisation.
Data set [11] deals with T2, His-Ub-RIPK3(387-518) (human, UniProt Q9Y572 387-518).
T2 sequence (looked up): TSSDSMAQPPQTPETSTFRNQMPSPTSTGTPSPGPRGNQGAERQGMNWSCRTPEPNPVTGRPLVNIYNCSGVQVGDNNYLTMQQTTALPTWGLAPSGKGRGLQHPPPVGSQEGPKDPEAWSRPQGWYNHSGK
As to the kind of experiment: fluorescence polarisation.

Data set [12] concerns the molecule itself. In words: transmission electron microscopy + thioflavin T fluorescence.
Data set [13] deals with T3, mCHERRY-RIPK3(387-518) (human, UniProt Q9Y572 387-518).
T3 sequence (looked up): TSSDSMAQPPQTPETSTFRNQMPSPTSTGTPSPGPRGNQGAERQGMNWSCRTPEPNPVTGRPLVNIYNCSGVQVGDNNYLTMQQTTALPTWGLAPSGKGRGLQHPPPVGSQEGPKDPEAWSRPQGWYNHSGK
In words: single-molecule two-colour fluorescence coincidence spectroscopy.

Data set [14] deals with the molecule itself. In words: confocal fluorescence microscopy of fibrils.
Data set [15] has as its target B8. In words: confocal fluorescence microscopy of fibrils.
Data set [16] concerns the molecule itself. In words: X-ray fibre diffraction.
Data set [17] concerns the molecule itself. As to the kind of experiment: single-molecule two-colour fluorescence coincidence spectroscopy.

B1: RIPK1(497-583) after removal of MBP with thrombin (domain or fragment, human, UniProt Q13546 497-583, looked up)
chain: MPSLHNIPVPETNYLGNTPTMPFSSLPPTDESIKYTIYNSTGIQIGAYNYMEIGGTSSSLLDSTNTNFKEEPAAKYQAIFDNTTSLT
Turning to B1, in data set [1], the binding result is recorded as “binds”.

B2: RIPK1(497-583) after removal of His6-ubiquitin (domain or fragment, human, UniProt Q13546 497-583, looked up)
chain: MPSLHNIPVPETNYLGNTPTMPFSSLPPTDESIKYTIYNSTGIQIGAYNYMEIGGTSSSLLDSTNTNFKEEPAAKYQAIFDNTTSLT
Turning to B2, the binding result in data set [2] is “binds”.

B3: MBP-RIPK1(497-583) (domain or fragment, human, UniProt Q13546 497-583, looked up)
chain: MPSLHNIPVPETNYLGNTPTMPFSSLPPTDESIKYTIYNSTGIQIGAYNYMEIGGTSSSLLDSTNTNFKEEPAAKYQAIFDNTTSLT
With B3, the binding result in [3] is recorded as “binds”.

B4: YPet-RIPK1(497-583) (domain or fragment, human, UniProt Q13546 497-583, looked up)
chain: MPSLHNIPVPETNYLGNTPTMPFSSLPPTDESIKYTIYNSTGIQIGAYNYMEIGGTSSSLLDSTNTNFKEEPAAKYQAIFDNTTSLT
As for B4, the binding result in data set [4] and in data set [5] was “binds” each time.
As to B5, the binding result in data set [6], in data set [7] and in data set [8] was “binds” each time.

B6: Alexa488-labelled RIPK1(497-583) (domain or fragment, human, UniProt Q13546 497-583, looked up)
chain: MPSLHNIPVPETNYLGNTPTMPFSSLPPTDESIKYTIYNSTGIQIGAYNYMEIGGTSSSLLDSTNTNFKEEPAAKYQAIFDNTTSLT
modifications: Alexa Fluor 488, covalent label, site not stated (degree of labelling 5%)
Consider B6, for which the binding result in data set [9], in [10] and in data set [11] was “binds” each time.
With VRIMNGVSGIQIGNHNAMS [synthetic peptide encompassing the RHIM of M45], in [12], the binding result is on record as “binds”.

B7: RIPK3(387-518) after removal of MBP with thrombin (domain or fragment, human, UniProt Q9Y572 387-518, looked up)
chain: TSSDSMAQPPQTPETSTFRNQMPSPTSTGTPSPGPRGNQGAERQGMNWSCRTPEPNPVTGRPLVNIYNCSGVQVGDNNYLTMQQTTALPTWGLAPSGKGRGLQHPPPVGSQEGPKDPEAWSRPQGWYNHSGK
Regarding B7, the binding result in data set [1] was “binds”.
Consider B8, for which the binding result in data set [13] is “binds”.

B9: M45(1-90) after removal of MBP with thrombin (domain or fragment, murine cytomegalovirus, UniProt Q06A28 1-90, looked up)
chain: MDRQPKVYSDPDNGFFFLDVPMPDDGQGGQQTATTAAGGAFGVGGGHSVPYVRIMNGVSGIQIGNHNAMSIASCWSPSYTDRRRRSYPKT
Regarding B9, the binding result in data set [1] is on record as “binds”.

B10: YPet-M45 (domain or fragment, murine cytomegalovirus, UniProt Q06A28 1-90, looked up)
chain: MDRQPKVYSDPDNGFFFLDVPMPDDGQGGQQTATTAAGGAFGVGGGHSVPYVRIMNGVSGIQIGNHNAMSIASCWSPSYTDRRRRSYPKT
In the case of B10, in data set [14], the binding result was “binds”.

B11: MBP-M45(1-90) (domain or fragment, murine cytomegalovirus, UniProt Q06A28 1-90, looked up)
chain: MDRQPKVYSDPDNGFFFLDVPMPDDGQGGQQTATTAAGGAFGVGGGHSVPYVRIMNGVSGIQIGNHNAMSIASCWSPSYTDRRRRSYPKT
Consider B11, for which the binding result in [3] is “binds”.

B12: M45(1-90) after removal of His6-ubiquitin (domain or fragment, murine cytomegalovirus, UniProt Q06A28 1-90, looked up)
chain: MDRQPKVYSDPDNGFFFLDVPMPDDGQGGQQTATTAAGGAFGVGGGHSVPYVRIMNGVSGIQIGNHNAMSIASCWSPSYTDRRRRSYPKT
B12: the binding result in data set [2] was “binds”.
As for B13, in data set [15], the binding result is “binds”.
Take B14: in data set [16], the binding result is “binds”.
As for B15, the binding result in data set [7] and in data set [17] was “binds” each time.

The record behind these values is publication doi:10.1101/324590 (bioRxiv, 2018).
